What was measured:
[1] = target: T1, native full length untagged APOL1-G0 (iAPOL1-CHO, construct a) (human, UniProt O14791 28-398); test: immunofluorescence, PFA-fixed permeabilized iAPOL1-CHO cells
T1 construct: Also used as CHO lysate in western blots; also called iAPOL1-G0; WT iAPOL1-G0
T1 sequence: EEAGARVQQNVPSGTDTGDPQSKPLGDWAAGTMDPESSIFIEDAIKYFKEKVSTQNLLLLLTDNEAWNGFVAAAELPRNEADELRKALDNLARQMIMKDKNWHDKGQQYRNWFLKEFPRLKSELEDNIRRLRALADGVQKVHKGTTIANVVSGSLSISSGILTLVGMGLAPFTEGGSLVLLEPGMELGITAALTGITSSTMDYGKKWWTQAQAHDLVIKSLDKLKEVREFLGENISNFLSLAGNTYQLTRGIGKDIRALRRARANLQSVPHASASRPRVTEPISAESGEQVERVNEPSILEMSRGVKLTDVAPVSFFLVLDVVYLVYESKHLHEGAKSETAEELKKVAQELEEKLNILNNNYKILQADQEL
Description: APOL2 is shown stained with 3.6D12 (a mAb to the N-terminal pore-forming domain (PFD)), although similar results were obtained with the other 43 APOL2-cross reactors (all to the PFD, data not shown). […] APOL1 is shown stained with PFD mAb 3.7D6, membrane-addressing domain (MAD) mAb 3.3A8, or SRA-interacting domain (SRA-ID) mAb 3.1C1, each detected with Alexa488 anti-mouse (see Example 1 below for epitope mapping), although similar results were obtained with all the other APOL1-specific antibodies to all three domains (data not shown). The reticular ER pattern persists in digitonin (plasma membrane only)-permeabilized cells for APOL2, but not APOL1, indicating APOL2 is on the cytoplasmic face of the ER, while APOL1 is inside. The nuclear membrane signal for APOL1 with digitonin is also seen without detergent in some cells since PFA semi-permeabilizes the nuclear membrane (data not shown). With digitonin, some of the more sensitive antibodies, including the PFD (3.7D6) and SRA-ID (3.1C1) antibodies shown here (but not MAD antibody 3.3A8), additionally detected APOL1 on the plasma membrane (arrowhead), which is topologically equivalent to the ER lumen.
Cells were plated on LabTekII (Nalge Nunc 154534) slides and fixed at 70-100% confluency. For mAb screening, cells were fixed/permeabilized for 5 min in −20° C. methanol (EMD MX0485-6). […]

[2] = target: T2, gD-SRA-ID-GPI (construct e) (human, UniProt O14791 305-398, C-terminal GPI anchor); test: flow cytometry, live CHO cells expressing the construct, 5 µg/ml
T2 sequence: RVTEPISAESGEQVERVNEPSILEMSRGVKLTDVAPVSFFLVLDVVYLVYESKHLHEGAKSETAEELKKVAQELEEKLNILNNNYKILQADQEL
Protocol: Stably transfected live (not fixed or permeabilized) CHO cells expressing the gD-iAPOL1-GPI constructs indicated in FIGS. 1A-1E after induction with 5 μg/ml dox for 48 h, showing differential antibody binding at 5 μg/ml. […] White histograms are Alexa488 anti-mouse or anti-rabbit secondaries only; grey histograms are the anti-APOL1 signals. A representative histogram for each category is shown: 3.7D6 for PFD; 3.3A8 for C-terminus of MAD, 3.5H9 for N-terminus of MAD; 3.1C1 for SRA-ID; 3.2D4 for multi-domain; 3.3F7 for conformational and 3.5B10 for FACS-negative (FACS-ve). The prefix 3 in the name of the antibodies denotes murine monoclonals from Method #3 (as shown in Example 1 below); other antibodies (not illustrated here) starting with the number 4 are murine monoclonals derived from mice additionally boosted with SRA-ID protein; and prefix 5-named antibodies are rabbit monoclonals from Method #5 (Table 2A; and Example 2). […] The Sigma polyclonal (HPA018885, raised to aa 263-387) and the Epitomics rabbit monoclonal (EPR2907(2), raised to an undisclosed peptide) are SRA-ID binders. […]
Cells were harvested with 5 mM EDTA in PBS, washed once with growth media and twice with PBS. […] Signals were read in a FACSCalibur3 (Becton Dickinson), with the exception of FIG. 8A and FIG. 14, which used a FACSCelesta, and data was analyzed using FlowJo v8.4.5.

B1: antibody 3.1C1 (antibody, V domains shown)
VH: QVQLQQSGPELVKPGASVRISCKASGYTFTNYFIHWVKQRPGQGLEWIGWINPGNLNTKYTEEFKGKATLTADKSSSTAYIQLNSLTSEDSAVYFCVNGNPFVYWGQGTLVTVSA
VL: DIVMTQSPSSLTVIAGEKVTLNCKSSQSLLNSGNQKKYLTWLQQKPGQPPKLLIYWTSTRDSGVPDRFTGSGSGTDFTLTISSVQAEDLAVYYCQNDYSYPLTFGAGTKLEIKR
notes: Mouse mAb, cloned as murine IgG2a LALAPG; not written separately; also called SRA-ID mAb 3.1C1
B1: binds [1]; binds [2].

Reference: patent publication US20230071609A1 (Genentech, published 2023)
